# According to article doi:10.1101/2020.07.07.192807 (bioRxiv, 2020):
# Molecular target: the molecule itself
# Assay: cross-linking
protein,measurement,value
"Wild type MtrR of Neisseria gonorrhoeae (strain FA19), hexa-histidine tagged (natural protein) MRKTKTEALKTKEHLMLAALETFYRKGIARTSLNEIAQAAGVTRGALYWHFKNKEDLFDALFQRICDDIENCIAQDAADAEGGSWTVFRHTLLHFFERLQSNDIHYKFHNILFLKCEHTEQNAAVIAIARKHQAIWREKITAVLTEAVENQDLADDLDKETAVIFIKSTLDGLIWRWFSSGESFDLGKTAPRIIGIMMDNLENHPCLRRK",stoichiometry N,2
"H105Y mutant MtrR of Neisseria gonorrhoeae (from an antibiotic resistant clinical isolate), hexa-histidine tagged (natural protein) MRKTKTEALKTKEHLMLAALETFYRKGIARTSLNEIAQAAGVTRGALYWHFKNKEDLFDALFQRICDDIENCIAQDAADAEGGSWTVFRHTLLHFFERLQSNDIYYKFHNILFLKCEHTEQNAAVIAIARKHQAIWREKITAVLTEAVENQDLADDLDKETAVIFIKSTLDGLIWRWFSSGESFDLGKTAPRIIGIMMDNLENHPCLRRK",stoichiometry N,2
